In publication PMC6889417, “Derepression of LOXL4 inhibits liver cancer growth by reactivating compromised p53” (Cell Death and Differentiation, 2019):

Molecular target: wild-type p53, endogenous (human (endogenous in SK-Hep1, HepG2), UniProt P04637 1-393)
Assay: cell-based or functional assay

Sequence of wild-type p53, endogenous (P04637 whole entry): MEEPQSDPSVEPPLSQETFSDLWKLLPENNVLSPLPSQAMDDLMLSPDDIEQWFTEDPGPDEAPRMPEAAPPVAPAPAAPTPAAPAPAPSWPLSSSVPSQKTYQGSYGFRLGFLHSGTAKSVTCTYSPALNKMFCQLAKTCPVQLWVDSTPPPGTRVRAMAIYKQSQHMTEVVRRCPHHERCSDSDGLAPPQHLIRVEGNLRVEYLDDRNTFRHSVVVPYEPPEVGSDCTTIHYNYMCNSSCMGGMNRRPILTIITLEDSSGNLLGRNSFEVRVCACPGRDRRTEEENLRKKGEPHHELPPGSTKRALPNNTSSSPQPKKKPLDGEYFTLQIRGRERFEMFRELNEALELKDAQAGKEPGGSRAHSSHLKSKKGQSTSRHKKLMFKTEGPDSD

B1: lysyl oxidase-like 4 (LOXL4), endogenous (natural protein, UniProt Q96JB6 25-756, looked up)
chain: QSLGTTKLRLVGPESKPEEGRLEVLHQGQWGTVCDDNFAIQEATVACRQLGFEAALTWAHSAKYGQGEGPIWLDNVRCVGTESSLDQCGSNGWGVSDCSHSEDVGVICHPRRHRGYLSETVSNALGPQGRRLEEVRLKPILASAKQHSPVTEGAVEVKYEGHWRQVCDQGWTMNNSRVVCGMLGFPSEVPVDSHYYRKVWDLKMRDPKSRLKSLTNKNSFWIHQVTCLGTEPHMANCQVQVAPARGKLRPACPGGMHAVVSCVAGPHFRPPKTKPQRKGSWAEEPRVRLRSGAQVGEGRVEVLMNRQWGTVCDHRWNLISASVVCRQLGFGSAREALFGARLGQGLGPIHLSEVRCRGYERTLSDCPALEGSQNGCQHENDAAVRCNVPNMGFQNQVRLAGGRIPEEGLLEVQVEVNGVPRWGSVCSENWGLTEAMVACRQLGLGFAIHAYKETWFWSGTPRAQEVVMSGVRCSGTELALQQCQRHGPVHCSHGGGRFLAGVSCMDSAPDLVMNAQLVQETAYLEDRPLSQLYCAHEENCLSKSADHMDWPYGYRRLLRFSTQIYNLGRTDFRPKTGRDSWVWHQCHRHYHSIEVFTHYDLLTLNGSKVAEGHKASFCLEDTNCPTGLQRRYACANFGEQGVTVGCWDTYRHDIDCQWVDITDVGPGNYIFQVIVNPHYEVAESDFSNNMLQCRCKYDGHRVWLHNCHTGNSYPANAELSLEQEQRLRNNLI
- expression of the p53 target genes PIG3 and BAX (quantitative real time PCR) after 5-aza-CR (5 μM, 16 h) in WT cells against 2DR cells: > 10 fold
